The target of this test is RANTES/eotaxin binding sites on guinea-pig eosinophils (guinea-pig). As to the kind of experiment: binding of 0.1 nM 125I-RANTES to 4x10^5 guinea-pig eosinophils without competitor.

B0 data for one substance are collected here from patent US20020081623A1.

As to “human RANTES (from UniProt P13501 24-91) (ligand)”, the B0 came out at 14.4%.
